Data from paper PMC9631991 (Biochemistry, 2022).
Values belong to the binder of their own block, whether it stands above or below them.

Experiments:
[1] = molecular target: pro-LC3B (residues 1-125) (human, UniProt Q9GZQ8 1-120); experiment: cell-based or functional assay
LC3B-I (residues 1-120) = LC3B-I (residues 1-120) (human, UniProt Q9GZQ8 1-120); experiment: ITC; 25 °C; 20 mM HEPES pH 7.5, 200 mM NaCl, 0.5 mM TCEP; 10~68 uM LC3B proteins in the cell, 10-fold higher concentration of ATG4b in the syringe; single-site binding model; conditions: both partners purified
[2] = molecular target: LC3B-115 (residues 1-115) (human, UniProt Q9GZQ8 1-115); experiment: as above; conditions: both partners purified

- fold decrease in KM of cleavage of the FRET substrate CFP-proLC3B-YFP, further fold against ATG4b-382 [1]: 2.6 fold
B1: ATG4b-366 (domain or fragment)
chain: MDAATLTYDTLRFAEFEDFPETSEPVWILGRKYSIFTEKDEILSDVASRLWFTYRKNFPAIGGTGPTSDTGWGCMLRCGQMIFAQALVCRHLGRDWRWTQRKRQPDSYFSVLNAFIDRKDSYYSIHQIAQMGVGEGKSIGQWYGPNTVAQVLKKLAVFDTWSSLAVHIAMDNTVVMEEIRRLCRTSVPCAGATAFPADSDRHCNGFPAGAEVTNRPSPWRPLVLLIPLRLGLTDINEAYVETLKHCFMMPQSLGVIGGKPNSAHYFIGYVGEELIYLDPHTTQPAVEPTDGCFIPDESFHCQHPPCRMSIAELDPSIAVGFFCKTEDDFNDWCQQVKKLSLLGGALPMFELVELQPSHLACPDVLN

- Kd (LC3B-I (residues 1-120)): 4.7 µM
- stoichiometry N (LC3B-I (residues 1-120)): 0.9 ± 0.2
- stoichiometry N [2]: 0.9 ± 0.2
B2: ATG4b WT (full-length ATG4b) (enzyme)
chain: MDAATLTYDTLRFAEFEDFPETSEPVWILGRKYSIFTEKDEILSDVASRLWFTYRKNFPAIGGTGPTSDTGWGCMLRCGQMIFAQALVCRHLGRDWRWTQRKRQPDSYFSVLNAFIDRKDSYYSIHQIAQMGVGEGKSIGQWYGPNTVAQVLKKLAVFDTWSSLAVHIAMDNTVVMEEIRRLCRTSVPCAGATAFPADSDRHCNGFPAGAEVTNRPSPWRPLVLLIPLRLGLTDINEAYVETLKHCFMMPQSLGVIGGKPNSAHYFIGYVGEELIYLDPHTTQPAVEPTDGCFIPDESFHCQHPPCRMSIAELDPSIAVGFFCKTEDDFNDWCQQVKKLSLLGGALPMFELVELQPSHLACPDVLNLSLDSSDVERLERFFDSEDEDFEILSL
